Measurements as given in EP4269437A1 (Zhejiang Nanomab Technology Center Co. Ltd., dated 2023).

Biological target: T1, human PD-1.Fc (human, UniProt Q15116 25-170, limits assumed)
T1 construct: also called PD-1; Fc protein; PD-1.hFc; not shown: human IgG Fc fragment
Assay: SPR, antibody captured on protein A, PD-1.Fc in flow

T1 sequence (Q15116 25-170 limits assumed): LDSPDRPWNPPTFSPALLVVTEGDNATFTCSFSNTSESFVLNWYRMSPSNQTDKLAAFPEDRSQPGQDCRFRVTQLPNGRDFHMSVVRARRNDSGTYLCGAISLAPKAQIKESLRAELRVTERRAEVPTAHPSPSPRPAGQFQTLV

B1: NB220 (Fc fusion)
heavy: QVQLQESGGGLLQAGDSLRLSCIVSGRTFSSYAIGWFRQAPGKEREFVAGINWSGRSQYYSESVKDRFTVSIDNAKNTVYLQMNSLKPEDTAVYYCAAERHLGVPTVRDDEYDDWGQGTQVTVSS
notes: not shown: IgG4 constant region of vector pCDNA3.4-IgG4
- Kd: 0.219 nM
- koff: 0.000323 s⁻¹
- kon: 1.48e+06 M⁻¹ s⁻¹

B2: NB211 (Fc fusion)
heavy: EVQVVETGGGLAQAGGSLRLSCAASGRTFSGYTVGWYRQSPGKEREFVAAISYSGGSTDYADSVKGRFTISRDNANNTVYLQMGSLKAEDTAVYYCNRVIRGTRDPSIYYVMDYWGKGTLVTVSS
notes: as for B1
- Kd: 1.33 nM
- koff: 0.003 s⁻¹
- kon: 2.26e+06 M⁻¹ s⁻¹

B3: NB202 (Fc fusion)
heavy: EVQVVESGGGLVQAGGSLRLSCTASGDTRLASAMGWYRQAPGKERELVAAITNSGLTYYADSVEGRFTISRDSAKNTVYLQMNSLKPEDTAVYYCNAGAPPPGGLGYDESDYWGQGTQVTVSS
notes: as for B1
- Kd: 0.328 nM
- koff: 6.77e-05 s⁻¹
- kon: 206000 M⁻¹ s⁻¹

B4: NB532 (Fc fusion)
heavy: QVQLVETGGGLVQAGGSLRLSCAASGRTFSSYNMGWFRQAPGKEREFVAAISWSGGSQGYAAAVKDRFTISRDNAKNTVYLQMNSLKAEDTAVYYCAAKYHSGSYYYTSIRPEEYDYWGQGTQVTVSS
notes: as for B1
- Kd: 7.03 nM
- koff: 0.00092 s⁻¹
- kon: 131000 M⁻¹ s⁻¹

B5: NB222 (Fc fusion)
heavy: QVQLVESGGGLVQAGGSLRLSCAASGGTFSNFNVGWFRQAPGKEREFVAASNWSAGTTHYSDSVKGRFTISRDNAANTAYLQMNSLRPDDTAVYYCNRVIRGTTYPDVYYGMDYWGKGTLVTVSS
notes: as for B1
- Kd: 0.149 nM
- koff: 0.000306 s⁻¹
- kon: 2.05e+06 M⁻¹ s⁻¹

B6: NB734 (Fc fusion)
heavy: QVQLVETGGGLVQAGGSLRLSCAASGDTILFSAVGWHRQAPGKERELVAAITNSGVTYYADSVKGRFSISRDNAKNTVYLQMNSLKPEDTAVYYCNAGAPPPGEFGYDESDYWGQGTQVTVSS
notes: as for B1
- Kd: 0.292 nM
- koff: 6.88e-05 s⁻¹
- kon: 236000 M⁻¹ s⁻¹

B7: NB223 (Fc fusion)
heavy: EVQLVESGGGLVQAGGSLRLSCAASGRTFSSYGMGWFRQAPGKEREFVAAVNWSNSSAYYADSVKDRFTISSDNAKSTIYLQMNSLKPEDTAVYYCRPYSDYVTYDPDDYDYWGQGTQVTVSS
notes: as for B1
- Kd: 6.39 nM
- koff: 0.000863 s⁻¹
- kon: 135000 M⁻¹ s⁻¹

B8: NB173 (Fc fusion)
heavy: QVQLQESGGGLVQAGGSLRLSCAASGRSFNSYAMGWFRQAPGKEREFVAAISQNGGTQGYAEAVKDRFTISRDNTNKVVALQMNSLKPEDTAAYYCAADGDASDISYAPPRDYEYDYWGQGTQVTVSS
notes: as for B1
- Kd: 83.1 nM
- koff: 0.000179 s⁻¹
- kon: 2150 M⁻¹ s⁻¹

B9: NB215 (Fc fusion)
heavy: EVQVVESGGGLVQAGDSLRLSCAASGGTISGYEMGWFRQAPGKEREFVAGISRNGRSTGYSDSAKDRFTISRDNAKNTVYLQMNSLKPEDTAVYYCAAGLKADYGDSYVDTSTRNYNYWGQGTQVTVSS
notes: as for B1
- Kd: 10.4 nM
- koff: 0.000508 s⁻¹
- kon: 49000 M⁻¹ s⁻¹

B10: NB147 (Fc fusion)
heavy: EVQVVESGGGVVQAGDSLRLSCVASGRTFSSVAMGWFRQAPGKEREFVAAISRSGGSAGYSDSVKDRSTISRDNAKNTVYLQMNSLKPEDTAVYFCAASELDFCSTLGCYDYWGQGIQVTFSS
notes: as for B1
- Kd: 2.75 nM
- koff: 0.000153 s⁻¹
- kon: 55800 M⁻¹ s⁻¹

B11: NB171 (Fc fusion)
heavy: QVQLVESGGGLVQAGGSLRLSCAASGRTFSSYAMGWFRQALGKEREWIAGVSMSGRTTYYAAPVKDRFTISRDNAKNTVTLQMNSLKPEDTAVYYCAAGRAQAEIPIMRAQEYDSWGQGTQVTVSS
notes: as for B1
- Kd: 6.21 nM
- koff: 0.000309 s⁻¹
- kon: 49700 M⁻¹ s⁻¹
